Data as given in US20240383980A1 (VITRUVIAE, published 2024).
Values belong to the binder of their own block, whether it stands above or below them.

Columns and labels:
[1] = molecular target: T1, recombinant human CD3de (Delta epsilon fusion) (human, UniProt P04234 22-105; P07766 23-126); assay: SPR (Biacore T200), human CD3de immobilized on CM5 chip, VP104 injected at 3.125-100 nM, 1:1 fit
T1 construct: It is written here as two chains; also called recombinant human CD3de (delta epsilon subunits)
T1 sequence (P04234 22-105, stated change not applied, chain 1 of 2): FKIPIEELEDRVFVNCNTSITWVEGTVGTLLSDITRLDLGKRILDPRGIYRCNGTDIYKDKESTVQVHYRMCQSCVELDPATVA
T1 sequence (P07766 23-126, stated change not applied, chain 2 of 2): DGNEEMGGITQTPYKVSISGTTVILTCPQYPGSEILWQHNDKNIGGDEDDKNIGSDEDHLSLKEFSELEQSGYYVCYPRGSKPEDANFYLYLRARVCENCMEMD
Method: (§1) The binding affinities of VP103 (chimeric alpaca anti-CD3 VHH F10-human IgG4) and VP104 (Humanized F10A VHH (C55A)-IgG4) for recombinant human CD3de (delta epsilon subunits) and recombinant cynomolgus CD3de (delta epsilon subunits) were assessed by SPR on a Biacore T200 (GE Healthcare). FIGS. 13a and 13b show the SPR sensorgrams for VP103 to human CD3de and cynomolgus CD3de immobilized onto the surface of CM5 sensor chip. FIGS. 14a and 14b show the SPR sensorgrams for VP104 to human CD3de and cynomolgus CD3de immobilized onto the surface of CM5 sensor chip. The data were fit with a 1:1 fitting model. […] These constructs can also be paired with anti-CD25 VP008, which is based on basiliximab, which is known to cross-react with cynomolgus CD25.

[2] = molecular target: T2, recombinant cynomolgus CD3de (delta epsilon subunits) (cynomolgus, UniProt Q95LI8 22-105; Q95LI5 22-117); assay: SPR, Biacore T200; cynomolgus CD3de immobilized on CM5 chip; 1:1 fit
T2 sequence (Q95LI8 22-105, stated change not applied, chain 1 of 2): as the sequence (P04234 22-105, stated change not applied, chain 1 of 2) above, with I5V, N15K, I20V, S32T, D33N, I34N, T64A, S74N, V83L counted along it
T2 sequence (Q95LI5 22-117, stated change not applied, chain 2 of 2): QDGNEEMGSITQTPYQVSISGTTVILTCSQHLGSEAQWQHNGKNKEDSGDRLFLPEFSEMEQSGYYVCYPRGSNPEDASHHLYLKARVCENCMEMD
Method: as §1

[3] = molecular target: T1, recombinant human CD3de (Delta epsilon …); assay: SPR, Biacore T200; human CD3de immobilized on CM5 chip; 1:1 fit
Method: as §1

[4] = molecular target: T2, recombinant cynomolgus CD3de (delta …); assay: SPR (Biacore T200), cynomolgus CD3de immobilized on CM5 chip, VP104 injected at 3.125-100 nM, 1:1 fit
Method: as §1

[5] = molecular target: T2, recombinant cynomolgus CD3de (delta …); assay: SPR (Biacore T200), cynomolgus CD3de immobilized on CM5 chip, VP103 injected at 3.125-100 nM, 1:1 fit
Method: as §1

[6] = molecular target: T1, recombinant human CD3de (Delta epsilon …); assay: SPR (Biacore T200), human CD3de immobilized on CM5 chip, VP103 injected at 3.125-100 nM, 1:1 fit
Method: as §1

recombinant human CD25 [7] = molecular target: T3, recombinant human CD25 (human, UniProt P01589 22-213, limits assumed); assay: SPR (Biacore T200), human CD25 immobilized on CM5 chip, VP100 injected at 3.125-100 nM, 1:1 fit
T3 construct: also called IL-2 receptor subunit a
T3 sequence (looked up): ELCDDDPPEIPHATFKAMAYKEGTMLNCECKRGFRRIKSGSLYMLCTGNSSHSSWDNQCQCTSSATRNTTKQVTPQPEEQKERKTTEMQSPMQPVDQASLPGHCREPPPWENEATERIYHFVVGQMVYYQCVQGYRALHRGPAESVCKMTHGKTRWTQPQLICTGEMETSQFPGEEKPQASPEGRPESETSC

recombinant human CD25 [8] = molecular target: T3, recombinant human CD25; assay: SPR; human CD25 immobilized on CM5 chip (legend of FIG. 8a)
[9] = molecular target: T1, recombinant human CD3de (Delta epsilon …); assay: SPR, Biacore T200; human CD3de immobilized on CM5 chip
recombinant human CD25 [10] = molecular target: T3, recombinant human CD25; assay: SPR, Biacore T200; human CD25 immobilized on CM5 chip
recombinant human CD25 [11] = molecular target: T3, recombinant human CD25; assay: SPR (Biacore T200), human CD25 immobilized on CM5 chip, VP101 injected at 3.125-100 nM, 1:1 fit
recombinant human CD25 [12] = molecular target: T3, recombinant human CD25; assay: SPR, Biacore T200; human CD25 immobilized on CM5 chip; 1:1 fit
recombinant human CD25 [13] = molecular target: T3, recombinant human CD25; assay: SPR; human CD25 immobilized on CM5 chip (legend of FIG. 8b)

B3: VP100 (ch7G7-IgG4) (antibody, V domains shown)
VH: EVQLVESGGDLVQPRGSLKLSCAASGFTFSSYGMSWVRQTPDKRLELVATINGYGDTTYYPDSVKGRFTISRDNAKNTLYLQMSSLKSEDTAMYFCARDRDYGNSYYYALDYWGQGTSVTVSS
VL: QIVLSQSPAILSASPGERVTMTCRASSSVSFMHWLQQKPGSSPKPWIYATSNLASGVSARFSGSGSGTSYSLTITRVEAEDAATYYCQQWSSNPPAFGGGTKLEIKR
notes: Chimeric 7G7 on human IgG4
Kd (recombinant human CD25 [7]): 0.009 nM
koff (recombinant human CD25 [7]): 3.56e-06 s⁻¹
kon (recombinant human CD25 [7]): 392000 M⁻¹ s⁻¹
Kd (recombinant human CD25 [8]): 3.8 nM

B4: VP001 (Teplizumab H:C114S with V-IGG4-A) (antibody, human IgG4 S228P, kappa, F234A L235A, V domains shown)
VH: QVQLVQSGGGVVQPGRSLRLSCKASGYTFTRYTMHWVRQAPGKGLEWIGYINPSRGYTNYNQKVKDRFTISRDNSKNTAFLQMDSLRPEDTGVYFCARYYDDHYSLDYWGQGTPVTVSS
VL: DIQMTQSPSSLSASVGDRVTITCSASSSVSYMNWYQQTPGKAPKRWIYDTSKLASGVPSRFSGSGSGTDYTFTISSLQPEDIATYYCQQWSSNPFTFGQGTKLQITR
notes: 4 chain IgG format (chVIT-100), IgG4 Fc with S228P, F234A, L235A, K322A; also called chVIT-100
Kd [9]: 5.2 nM

B5: VP002 (huOKT3 VCD3-L3H3 with V-IGG4-A) (antibody, human IgG4 S228P, kappa, F234A L235A, V domains shown)
VH: QVQLVQSGAEVKKPGASVKVSCKASGYTFTRYTMHWVRQSPGQGLEWMGYINPSRGYTNYNQKFQGRVTMTTDKSTSTAYMELSSLRSEDTAVYYCARYYDDHYSLDYWGQGTTVTVSS
VL: EIQLTQSPATLSLSPGERATLSCRASSSVSYMNWYQQKPGQAPRRWIYDTSKLATGIPARFSGSGSGTDYTLTISSLEPEDAAVYYCQQWSSNPFTFGQGTKLEIKR
notes: 4 chain IgG format (huVIT-100), IgG4; also called huOKT3 H3L3; huVIT-100
Kd [9]: 12.4 nM

B6: VP008 (VCD25-L2H2 with V-IGG4-B) (antibody, human IgG4 S228P, kappa, F234A L235A, V domains shown)
VH: QVQLVQSGAEVKKPGASVKVSCKASGYSFTRYWMHWVRQPPGQRLEWMGAIYPGNSDTSYSQKFEGRVTITADTSASTAYMELSSLRSEDTAVYYCSRDYGYYFDFWGQGTTVTVSS
VL: EIVLTQSPDFQSVTPKEKVTITCRASSSRSYMQWYQQKPDQSPKRLIYDTSKSASGVPSRFSGSGSGTDYTLTINSLEAEDAATYYCHQRSSYTFGQGTKLEIKR
notes: 4 chain IgG format (huVIT-101), IgG4; also called huBasiliximab H2L2; huVIT-101
Kd (recombinant human CD25 [10]): 1.2 nM

The remaining lines, values ahead:

koff [1]: 0.0651 s⁻¹
kon [1]: 4.58e+06 M⁻¹ s⁻¹
Kd [2]: 13.3 nM
Kd [3]: 14.2 nM
koff [4]: 0.0516 s⁻¹
kon [4]: 3.89e+06 M⁻¹ s⁻¹
B1: VP104 (Humanized F10A VHH (C55A)-IgG4) (Fc fusion)
chain: EVQLLESGGGLVQPGGSLRLSCAASGFTLDDYAIGWVRQAPGKGREGVSAIRRSDGHTYYADSVKGRFTISSDNSKNTVYLQMNSLRAEDTAVYYCAAGTGWGRYFYAGMDYWGQGTLVTVSSGGGGSGGGGSGGGGSKYGPPCPPCPAPEAAGGPSVFLFPPKPKDTLMISRTPEVTCVVVDVSQEDPEVQFNWYVDGVEVHNAKTKPREEQFNSTYRVVSVLTVLHQDWLNGKEYKCAVSNKGLPSSIEKTISKAKGQPREPQVYTLPPSQEEMTKNQVSLTCLVKGFYPSDIAVEWESNGQPENNYKTTPPVLDSDGSFFLYSRLTVDKSRWQEGNVFSCSVMHEALHNHYTQKSLSLSLGK
notes: also called humanized Anti-CD3 nanobody F10 with free Cys removed and with V-IGG4-A-Fc

Kd [2]: 2.8 nM
koff [5]: 0.00112 s⁻¹
kon [5]: 406000 M⁻¹ s⁻¹
Kd [3]: 3.7 nM
koff [6]: 0.000972 s⁻¹
kon [6]: 261000 M⁻¹ s⁻¹
B2: VP103 (chimeric alpaca anti-CD3 VHH F10-human IgG4) (Fc fusion)
chain: QVQLQESGGGLVQAGGSLTLSCAASGFTLDDYAIGWFRQAPGKEREGVSCIRRSDGHTYSADSVKGRFTISSDNAKNTVYLQMNNLKPEDTAVYYCAAGTGWGRYFYAGMDYWGKGTQVTVSSGGGGSGGGGSGGGGSKYGPPCPPCPAPEAAGGPSVFLFPPKPKDTLMISRTPEVTCVVVDVSQEDPEVQFNWYVDGVEVHNAKTKPREEQFNSTYRVVSVLTVLHQDWLNGKEYKCAVSNKGLPSSIEKTISKAKGQPREPQVYTLPPSQEEMTKNQVSLTCLVKGFYPSDIAVEWESNGQPENNYKTTPPVLDSDGSFFLYSRLTVDKSRWQEGNVFSCSVMHEALHNHYTQKSLSLSLGK
notes: VHH-linker-IgG4 Fc chain; also called Alpaca Anti-CD3 nanobody F10 with V-IGG4-A-Fc

Kd (recombinant human CD25 [11]): 0.001 nM
koff (recombinant human CD25 [11]): 1.64e-07 s⁻¹
kon (recombinant human CD25 [11]): 126000 M⁻¹ s⁻¹
Kd (recombinant human CD25 [12]): < 0.001 nM
Kd (recombinant human CD25 [13]): < 1 nM
B7: VP101 (hu7G7-IgG4) (antibody, V domains shown)
VH: EVQLVESGGGLVQPGGSLRLSCAASGFTFSSYGMSWVRQAPGKRLELVATINGYGDTTYYPDSVKGRFTISRDNAKNTLYLQMNSLRAEDTAVYYCARDRDYGNSYYYALDYWGQGTLVTVSS
VL: EIVLTQSPATLSLSPGERATLSCRASSSVSFMHWLQQKPGQAPKPLIYATSNLASGIPARFSGSGSGTDYTLTISSLEPEDFAVYYCQQWSSNPPAFGGGTKVEIKR
notes: Humanized 7G7 on human IgG4
